B1: CONY1: scFv derived from Y1 scFv in which the myc tag is replaced by lysine, alanine, lysine (KAK); SEQ ID NO: 204 (protein, listed as Homo sapiens)
scFv: MKYLLPTAAAGLLLLAAQPAMAEVQLVESGGGVVRPGGSLRLSCAASGFTFDDYGMSWVRQAPGKGLEWVSGINWNGGSTGYADSVKGRFTISRDNAKNSLYLQMNSLRAEDTAVYYCARMRAPVIWGQGTLVTVSRGGGGSGGGGSGGGGSSELTQDPAVSVALGQTVRITCQGDSLRSYYASWYQQKPGQAPVLVIYGKNNRPSGIPDRFSGSSSGNTASLTITGAQAEDEADYYCNSRDSSGNHVVFGGGTKLTVLGAAAKAK
B2: S-S Y1 dimer: Y1 sulfide bridge dimer compared with CONY1 and Y1-IgG in the radioreceptor assay (protein)
scFv: MEVQLVESGGGVVRPGGSLRLSCAASGFTFDDYGMSWVRQAPGKGLEWVSGINWNGGSTGYADSVKGRFTISRDNAKNSLYLQMNSLRAEDTAVYYCARMRAPVIWGQGTLVTVSRGGGGSGGGGSGGGGSSELTQDPAVSVALGQTVRITCQGDSLRSYYASWYQQKPGQAPVLVIYGKNNRPSGIPDRFSGSSSGNTASLTITGAQAEDEADYYCNSRDSSGNHVVFGGGTKLTVLGGGGCKAK

Columns and labels:
[1] = biological target: T1, GPIb (glycocalicin) derived from platelets (Homo sapiens, UniProt P07359); assay: ELISA to GC (glycocalicin), monomer versus dimer; assay type: binding
T1 construct: glycocalicin (soluble, extracellular fragment of GPIbα); from tissue; host or cells: human platelets
Protocol: An ELISA assay was performed to ascertain the differences in binding between the monomer (the Y1 scFv-also known as Y1-kak) and the dimer Y1-cys-kak (the cysteine dimer) for antigen GPIb (glycocalicin) derived from platelets. A polyclonal anti single chain antibody and/or a novel polyclonal anti-VL (derived from rabbits) and anti-rabbit HRP, were used to detect the binding to GPIb. […] For instance, to reach 0.8 OD units 12.8 μg/ml of monomer was used compared to only 0.1 μg/ml of dimer.
100 ml of purified glycocalicin was incubated in a 96 flat well maxisorp plates, overnight at 4 degrees celsius. The plate was washed with PBST (PBS+0.05% tween) 3 times, then […] of PBST-milk (PBST+2% Non fat milk), for 1 hr at room temperature. The plate was washed with PBST, and the monomer or dimer (100 ml) was added in PBST-milk at different concentrations for 1 hr at room temp. Then the plate was washed and anti-VL polyclonal (derived from immunized rabbits with VL derived from Y1) (1:100 diluted in PBST-milk) was added for an hour. The plate was washed and anti-rabbit HRP was added for an additional hour. The plate was washed 5 times and 100 μl TMB substrate was added for approximately 15 minutes then 100 μl of 0.5H2SO4 was added to stop the reaction. The optical density of the plate was measured at 450 nm in an ELISA reader.

MOLT-4 cells = assay: T-ALL (MOLT4) model in SCID mice; assay type: in vivo
Protocol: The in vivo mouse model for T-ALL uses SCID mice (Jackson Laboratories) injected with MOLT4 cells derived from a T cell leukemia patient.
In one experiment, SCID mice were pretreated with 100 mg/kg Cytoxan (CTX, Cyclophosphamid for injection, Mead Johnson). Eleven days after CTX injection, MOLT-4 cells were injected intravenously into the tail vein. Control mice were injected with PBS alone. One week post-MOLT-4 injection mice were injected with CONY1-Doxorubicin, which is a conjugate between scFv CON Y1 polypeptide, having KAK amino acid residues at its carboxy end and doxorubicin via a short organic linker; CONY1, which is a scFv antibody fragment derived from Y1 scFv in which the DNA sequences encoding the myc tag of Y1 were deleted and replaced with a DNA sequence encoding the amino acids lysine, alanine, lysine (KAK); or free Doxorubicin. The mice were injected three times per week for three weeks. […] (Table M).
Mice started to die 32 days post cell inoculation, and the surviving mice were sacrificed at this time. Bone marrow cells were analyzed by flow cytometry using anti-human CD44-FITC and Y1-Biotin/SAV-PE. Blood samples from several animals were monitored for platelet and white blood cell count. Livers were weighted and examined for appearance. Other organs were also examined for tumor appearance.
In a second experiment, SCID mice were i.v. injected with 2×10^7 MOLT-4 cells/mouse, 5 days post treatment with cyclophosphamide. Anti-cancer agents or PBS (negative control animals) were injected i.v. three times/week from day 5 post MOLT-4 cells injection and onward. On day 35, blood was drawn from the animals, the animals were sacrificed, and their livers were excised and weighed. In the untreated, PBS-treated MOLT-4 cell-bearing animals, the liver presented with a very massive tumor growth, and its size was increased 2-3-fold relative to PBS control uninfected animals. In this experiment, there were five treatment groups:
In parallel, portions of liver tissue were taken for histology and cell harvesting for FACS analysis. The survival rate of another group of treated animals was recorded relative to that of control untreated mice.
In a third experiment, using the identical SCID/MOLT-4 protocol, there were 6 groups: […]

[2] = mouse, in vivo
Protocol: The radioactive protein was then admixed with unlabeled CONY-1 to yield a solution of 75 μg/ml CONY-1 containing 2.5×10^6 CPM/ml in saline.
Male Balb-C mice were pretreated by intraperitoneal injection of 0.5 ml/mouse of 0.9% NaI. After 2 hours, the mice were injected intravenously with 0.2 ml of the labeled CONY-1 solution, resulting in a ^125I-CONY-1 dose of 15 μg (5×10^5 CPM) per mouse.
At various times after injection, blood was collected over EDTA, mice were sacrificed, and tissues were excised. Samples and organs were taken at 5, 15, and 30 minutes and at 1, 2, 4, 8, and 24 hours after injection. Two to four mice were used per time point. Plasma was separated and either counted for gamma radioactivity or subjected to precipitation with trichloroacetic acid (TCA). After centrifugation, TCA precipitates were subjected to gamma radioactivity counting. Liver, lung, kidney, spleen, and bone marrow samples were weighed and counted for gamma radioactivity. Plasma TCA precipitated radioactivity was plotted against time, and a two-compartment kinetics model was fitted. Organ/tissue total and specific radioactivity values were calculated.

KG-1 cells [3] = assay: AML KG-1 model in SCID/NOD mice; assay type: in vivo
Protocol: The in vivo mouse model for human AML uses SCID/NOD mice (Jackson Laboratories) inoculated with KG-1 cells derived from a human AML cell line.
In a first experiment, NOD/SCID mice were pretreated with 100 mg/kg CYTOXAN®. Four days post CYTOXANT injection, KG-1 cells were injected intravenously into the tail vein of six groups of mice. (Table N, Groups 2 and 5-9). One group of mice (Table N, Group 1) was injected with PBS alone (control).
Beginning 19 days post KG-1 injection mice were treated with: CONY1, Doxorubicin, CONY1-Doxorubicin conjugate, or Mylotarg®. (Mylotarg® is a monoclonal antibody (anti CD33) conjugated chemically to calcheamicin recently approved by the FDA for treatment of AML patients age 60 and over in a first relapse.) Mice were treated once or three times per week for three weeks. […]
Mice were sacrificed from 60 to 65 days post cell injection. Bone marrow and blood samples were analyzed by flow cytometry using mouse anti human CD34-FITC (IQP 144F) (or anti CD44-FITC (MCA89F, Serotec)) and Y1-Biotin/SAV-PE. […]
An additional experiment was performed in which SCID-NOD mice were i.v. injected with 3×10^4 MOLT-4 cells/mouse 5 days post treatment with cyclophosphamide. […] Bone marrow was extracted and analyzed by FACS analysis using a commercially available antiCD44 antibody for the detection of MOLT-4 cells in the mice bone marrow cell population.

KG-1 cells [4] = assay: Radioreceptor binding assay with KG-1 cells; design: species or system human; conditions: 2 ng/tube 125I-Y1-IgG tracer
Protocol: The assay system involved the use of radioactive ligands that were prepared by iodination with ^125I using chloramine T on the Y1-IgG construct or the Bolton-Hunter (CONY1) reagent. The assay tubes contained 5×10^6 KG-1 cells per 0.2 ml and a labeled tracer with varying amounts of unlabeled competitor, in PBS+0.1% BSA, pH 7.4. After one hour incubation with agitation at 4° C., the cells were thoroughly washed with cold buffer and taken for radioactivity counting.
For the radio receptor binding assay (RRA), 2 ng/tube of ^125I-Y1-IgG was used, and competition was performed with each of the three molecules. […] A rough estimate of the affinity of the Y1-IgG in this experiment is 2×10^−8 M. The corresponding affinity of the dimer is, therefore, 4×10^−8 M.
In a second RRA using labeled CONYL, a 100 ng/tube of ^125I-Y1-IgG was used, and competition was performed with each of the three molecules. […] A rough estimate of the affinity of CONY 1 in this experiment is 10^−6M. The corresponding affinity of the dimer is, therefore, 5×10^−8 M.

Molecule | concentration used to reach 0.8 OD units [1] [µg/mL] | liver weight versus free Doxorubicin-treated or untreated MOLT-4 mice (MOLT-4 cells; first experiment, three times per week for three weeks, sacrifice 32 days post inoculation) | survival (MOLT-4 cells; mice from three groups with continued treatment) | liver weights / tumor growth in the liver (MOLT-4 cells; second experiment, day 35, i.v. three times/week, scFv or conjugate 75 μg/mouse, Doxorubicin 0.1 mg/kg) | tumor growth (based on liver weights) (MOLT-4 cells; third experiment, scFv 75 μg/mouse, IgG 5 μg/mouse) | distribution between plasma and erythrocytes (in words) [2] | half-life of blood clearance, first compartment ([2]; iv) [h] | half-life of blood clearance, second compartment ([2]; iv) [h] | percentage of KG-1 cells in bone marrow (in words) (KG-1 cells [3]; KG-1 cells incubated in vitro with scFv before injection (groups 3 and 4)) | development of the malignancy / prevalence of bone marrow cancer (in words) (KG-1 cells [3]; additional experiment, day 60, CONY1 scFv 75 μg/mouse three times/week, Mylotarg 7 μg/mouse once a week) | affinity relative to the full Y1 antibody (KG-1 cells [4])
B1 | 12.8 | weighted significantly less | prolonged | markedly inhibited tumor growth in the liver | inhibited tumor growth | did not adhere to erythrocytes | 0.583 | 3.17 | significantly lower percentage | no effect | 
B2 |  |  |  |  |  |  |  |  |  |  | twofold lower
